# Results from US20250325630A1, “HOMODIMER FUSION PROTEINS FOR TREATING ATOPIC DERMATITIS” (Intervet Inc., priority 2021, published 2025).
# B1: c10A12 H2L6: caninized rat 10A12 anti-canine IL-31Rα antibody; likely c10A12VH2-cIgGBm (SEQ ID NO: 27) with c10A12VL6-cCl (SEQ ID NO: 31) (antibody)
# heavy: EVQLVESGGDLVKPGGSLRLSCAASGFTFSNYYMAWVRQAPGKGLQWVASISTGGGNTYYRDSVKGRFTISRDNAKNTLYLQMNSLRAEDTAMYYCARHGTLYFDYWGQGTLVTVSSASTTAPSVFPLAPSCGSTSGSTVALACLVSGYFPEPVTVSWNSGSLTSGVHTFPSVLQSSGLYSLSSMVTVPSSRWPSETFTCNVAHPASKTKVDKPVPKRENGRVPRPPDCPKCPAPEMLGGPSVFIFPPKPKDTLLIARTPEVTCVVVALDPEDPEVQISWFVDGKQMQTAKTQPREEQFAGTYRVVSVLPIGHQDWLKGKQFTCKVNNKALPSPIERTISKARGQAHQPSVYVLPPSREELSKNTVSLTCLIKDFFPPDIDVEWQSNGQQEPESKYRTTPPQLDEDGSYFLYSKLSVDKSRWQRGDTFICAVMHEALHNHYTQESLSHSPGK
# light: QPVLTQPPSLSASLGTTARLTCERSSGDIGDSYVSWYQQKPGSPPRDVIYVDDQRPSEVSKSFSGSKDTSANAGLLLISGLQPEDEADYFCQSYDSNIDGPVFGGGTHLTVLGQPKASPSVTLFPPSSEELGANKATLVCLISDFYPSGVTVAWKADGSPVTQGVETTKPSKQSNNKYAASSYLSLTPDKWKSHSSFSCLVTHEGSTVEKKVAPAECS
# Biological target: canine IL-31Rα
# Test: ELISA binding of chimeric and caninized antibodies to canine IL-31Rα
# Conditions: FIG. 1-3, in words
# Experimental: The nucleotide and deduced amino acid sequence of the HC and LC of selected rat antibodies reactive with canine IL-31Rα was determined. The amino acid sequences representing the 3 HC CDRs and 3 LC CDRs for each antibody also were determined. These CDRs were used to develop caninized antibodies that bind canine IL-31Rα ECD. The binding of caninized antibodies to IL-31Rα was determined by ELISA as follows:
# • 1. Anti-Dog IgG (cFc specific)-Peroxidase (Sigma-Aldrich SAB3700109-1.5 MG) • 2. TMB-ELISA Substrate (Thermo-Fisher Cat #34028) • 3. PBS pH7.4 (Thermo-Fisher Cat #10010001) • 4. Tris Buffered Saline with Tween 20 (TBST) (Sigma-Aldrich T9039-10PAK)
# • 1. Coat immunoplates by cIL-31Rα in PBS buffer at 1 μg/mL, 100 μL/well. Incubate the plates at 37° C. for 1-2 hrs or 4° C. overnight. • 2. Wash the plates 3 times by TBST buffer. • 3. Block the plates by blocking buffer (0.5% BSA in TBST) for 45-60 minutes at room temperature. • 4. Three-fold dilute anti-cIL31-Ra antibodies with blocking buffer in dilution plates and transfer the diluted antibodies into the cIL-31Rα coated plates, incubate 45-60 minutes at room temperature. • 5. Wash the plates 3 times by TBST. • 6. Add 1:2000 diluted HRP conjugated anti-dog IgG Fc into the plates, incubate 45-60 minutes at room temperature. • 7. Wash the plates 3 times by TBST. • 8. […] Read the plates by plate reader at […].
molecule,measurement,value
B1,EC50 of binding to canine IL-31Rα compared with the corresponding chimeric antibody,even lower than the EC50 for the corresponding chimeric 10A12 antibody
